Source: US8586357B2, “Markers of definitive endoderm” (ViaCyte, Inc., priority 2003, dated 2013)

Assays:
Assay type in all cases: cell-based, human
hESCs [1] = experiment: Isolation of definitive endoderm cells by FACS using cell surface markers of Table 5 (Example 13); details: 100, 50 or 25 ng/ml activin A; Example 13 written in present tense
Procedure: Using methods, such as those described in the above Examples, hESCs are differentiated to produce definitive endoderm. In particular, to increase yield and purity of definitive endoderm in differentiating cell cultures, the serum concentration of the medium is controlled as follows: 0% FBS on day 1, 0.2% FBS on day 2 and 2.0% FBS on days 3-6. Differentiating cell populations are grown in the presence of 100 ng/ml, 50 ng/ml or 25 ng/ml activin A, whereas non-differentiating control populations are grown in the absence of activin A.
An appropriate amount of labeled antibody that binds to one of the markers listed above is added to a sample of each culture and labeling proceeds on ice. Cells are washed by adding PBS and pelleted. A second wash with buffer is completed then cells are resuspended. Secondary antibody (FITC conjugated secondary antibody is added and allowed to label for about 30 minutes followed by two washes in buffer as above. Cells are resuspended and analyzed and sorted using a FACS. Cells are collected directly into RLT lysis buffer for subsequent isolation of total RNA for gene expression analysis by real-time quantitative PCR.

hESCs [2] = experiment: CXCR4+ cell number by flow cytometry (FACS); details: 0, 10 or 100 ng/mL; 7 days; 0.5%-2% FBS; FIGS. 30A-C
Procedure: hESCs were differentiated in RPMI media supplemented with 0.5%-2% FBS (increased from 0.5% to 1.0% to 2.0% over the first 3 days of differentiation) and either 0, 10, or 100 ng/mL of activin A. After 7 days of differentiation the cells were dissociated in PBS without Ca^2+/Mg^2+ containing 2% FBS and 2 mM (EDTA) for 5 minutes at room temperature. The cells were filtered through 35 um nylon filters, counted and pelleted. Pellets were resuspended in a small volume of 50% human serum/50% normal donkey serum and incubated for 2 minutes on ice to block non-specific antibody binding sites. To this, 1 uL of mouse anti-CXCR4 antibody (Abeam, cat# ab10403-100) was added per 50 uL (containing approximately 10^5 cells) and labeling proceeded for 45 minutes on ice. Cells were washed by adding 5 mL of PBS containing 2% human serum (buffer) and pelleted. A second wash with 5 mL of buffer was completed then cells were resuspended in 50 uL buffer per 10^5 cells. […] Cells were resuspended at 5×10^6 cells/mL in buffer and analyzed and sorted using a FACS Vantage (Beckton Dickenson) by the staff at the flow cytometry core facility (The Scripps Research Institute). Cells were collected directly into RLT lysis buffer (Qiagen) for subsequent isolation of total RNA for gene expression analysis by real-time quantitative PCR.

hESCs [3] = experiment: AFP antibody-labeled cell number by flow cytometry; details: presence vs absence of activin A; FIGS. 9A-B
From the text: As a further evidence of the specificity of the SOX17^hi/AFP^lo/TM^lo/SPARC^lo marker profile as predictive of definitive endoderm, SOX17 and AFP gene expression was quantitatively compared to the relative number of antibody labeled cells.

hESCs [4] = experiment: Validation of definitive endoderm markers by Q-PCR (Example 12); details: 100 ng/ml activin A vs no exogenous activin A; Example 12 written in present tense
Procedure: Using the methods, such as those described in the above Examples, hESCs are differentiated to produce definitive endoderm. In particular, to increase the yield and purity of definitive endoderm in differentiating cell cultures, the serum concentration of the medium is controlled as follows: 0% FBS on day 1, 0.2% FBS on day 2 and 2.0% FBS on days 3-6. Differentiating cell populations are grown in the presence of 100 ng/ml activin A, whereas non-differentiating control populations are grown in the absence of activin A. Human embryonic cell cultures grown in the presence or absence of activin A and in either 2% serum or 10% serum over the entire 6 day differentiation period are also monitored. Daily samples of each culture are withdrawn and the amount of mRNA transcript produced for each of the markers AGPAT3, APOA2, C20orf56, C21orf129, CALCR, CCL2, CER1, CMKOR1, CRIP1, CXCR4, CXorf1, DIO3, DIO3OS, EB-1, EHHADH, ELOVL2, EPSTI1, FGF17, FLJ10970, FLJ21195, FLJ22471, FLJ23514, FOXA2, FOXQ1, GATA4, GPR37, GSC, LOC283537, MYL7, NPPB, NTN4, PRSS2, RTN4RL1, SEMA3E, SIAT8D, SLC5A9, SLC40A1, SOX17, SPOCK3, TMOD1, TRPA1, TTN, AW166727, AI821586, BF941609, AI916532, BC034407, N63706 and AW772192 is measured by Q-PCR.

B1: Activin A: growth factor of the TGFβ superfamily, Nodal/Activin subgroup; definitive endoderm inducer (protein, UniProt P08476 311-426, looked up)
Inhibin beta A chain: GLECDGKVNICCKKQFFVSFKDIGWNDWIIAPSGYHANYCEGECPSHIAGTSGSSLSFHSTVINHYRMRGHSPFANLKSCCVPTKLRPMSMLYYDDGQNIIKKDIQNMIVEECGCS
For B1, the “number of cells positive for the Table 4 markers as dose is increased” value (hESCs [1]) was “increase significantly”, the “number of CXCR4+ cells as dose is increased” value (hESCs [2]) was “increase dramatically” and the “decrease in AFP antibody-labeled cell number” value (hESCs [3]) was “approximately 7 fold”. For the same molecule, the “expression levels of the Table 4 markers (AGPAT3 ... AW772192)” value (hESCs [4]) was “high”.
